{"source": "paper PMC9348664", "about": "“PFKFB4 interacts with ICMT and activates RAS/AKT signaling-dependent cell migration in melanoma” (Life Science Alliance, 2022)", "target": "the molecule itself", "assay": "two-hybrid; MaMTH (mammalian membrane split-ubiquitin two-hybrid) in MaMTH-modified HEK293T cells; bait fused to Cub-GAL4, prey fused to Nub; GAL4-driven luciferase normalised to Renilla"}
{"protein": "human PFKFB4 as MaMTH fusions (PFKFB4-Cub-GAL4 bait; PFKFB4-Nub prey) (enzyme, UniProt Q16877 1-469, looked up, 6-phosphofructo-2-kinase/fructose-2,6-biphosphatase 4 (PFKFB4), human, inserted in-frame into the MaMTH bait or prey vectors; One molecule for the differently tagged copies of the same protein; The bait copy carries Cub-GAL4; The prey copy carries Nub at its N- or C-terminus (both were tested against the PFKFB4 bait); also called hPFKFB4; source: MaMTH-modified HEK293T, transfected, in cells; not …) MASPRELTQNPLKKIWMPYSNGRPALHACQRGVCMTNCPTLIVMVGLPARGKTYISKKLTRYLNWIGVPTREFNVGQYRRDVVKTYKSFEFFLPDNEEGLKIRKQCALAALRDVRRFLSEEGGHVAVFDATNTTRERRATIFNFGEQNGYKTFFVESICVDPEVIAANIVQVKLGSPDYVNRDSDEATEDFMRRIECYENSYESLDEDLDRDLSYIKIMDVGQSYVVNRVADHIQSRIVYYLMNIHVTPRSIYLCRHGESELNLKGRIGGDPGLSPRGREFAKSLAQFISDQNIKDLKVWTSQMKRTIQTAEALGVPYEQWKVLNEIDAGVCEEMTYEEIQDNYPLEFALRDQDKYRYRYPKGESYEDLVQRLEPVIMELERQENVLVICHQAVMRCLLAYFLDKAAEQLPYLKCPLHTVLKLTPVAYGCKVESIFLNVAAVNTHRDRPQNVDISRPPEEALVTVPAHQ", "values": [{"measurement": "fold increase of luciferase expression over PFKFB4-Cub-GAL4 alone (Nub at the C-terminus of the prey)", "value": 13, "unit": "times"}, {"measurement": "fold increase of luciferase expression over PFKFB4-Cub-GAL4 alone (Nub at the N-terminus of the prey)", "value": 5, "unit": "times"}]}
